{
  "source": "FireProtDB (doi:10.1529/biophysj.106.103804)",
  "details": "Bacillus licheniformis, CD, reversible: Yes",
  "key": {"[1]": {"details": "pH 6, Thermal, Sodium phosphate Sodium fluoride 25 mM 100 mM"}, "[2]": {"details": "pH 6.5, Thermal, Sodium phosphate Sodium fluoride 25 mM 100 mM"}, "[3]": {"details": "pH 7, 22 °C, Urea, Fluorescence, Thiol reactivity, Sodium phosphate 100 mM, transition: 3"}, "[4]": {"details": "pH 7, Thermal, Sodium phosphate Sodium fluoride 25 mM 100 mM"}, "[5]": {"details": "pH 7.5, Thermal, Sodium phosphate Sodium fluoride 25 mM 100 mM"}, "[6]": {"details": "pH 8, Thermal, Sodium phosphate Sodium fluoride 25 mM 100 mM"}},
  "data": [
    {"sequence": "MKLWFSTLKLKKAA [wild type]", "values": [
      {"measurement": "heat capacity change of unfolding", "setting": "[1]", "result": 3.9, "unit": "kcal/mol/K"},
      {"measurement": "unfolding enthalpy (van 't Hoff)", "setting": "[1]", "result": 141, "unit": "kcal/mol"},
      {"measurement": "unfolding free energy", "setting": "[1]", "result": 7.2, "unit": "kcal/mol"},
      {"measurement": "Tm", "setting": "[2]", "result": 67.9, "unit": "°C"},
      {"measurement": "unfolding enthalpy (van 't Hoff)", "setting": "[2]", "result": 147, "unit": "kcal/mol"},
      {"measurement": "denaturant midpoint (higher = more stable)", "setting": "[3]", "result": 3, "unit": "M"},
      {"measurement": "unfolding free energy", "setting": "[3]", "result": 5.2, "unit": "kcal/mol"},
      {"measurement": "Tm", "setting": "[4]", "result": 67, "unit": "°C"},
      {"measurement": "unfolding enthalpy (van 't Hoff)", "setting": "[4]", "result": 140, "unit": "kcal/mol"},
      {"measurement": "Tm", "setting": "[5]", "result": 66.5, "unit": "°C"},
      {"measurement": "unfolding enthalpy (van 't Hoff)", "setting": "[5]", "result": 163, "unit": "kcal/mol"},
      {"measurement": "Tm", "setting": "[6]", "result": 65.1, "unit": "°C"},
      {"measurement": "unfolding enthalpy (van 't Hoff)", "setting": "[6]", "result": 133, "unit": "kcal/mol"}
    ]}
  ]
}
